In paper PMC9497064, “Model of the SARS-CoV-2 Virus for Development of a DNA-Modified, Surface-Enhanced Raman Spectroscopy Sensor with a Novel Hybrid Plasmonic Platform in Sandwich Mode”:

What was measured:
[1] = biological target: T1, RBD on Ag nanoparticles (RBD NP) (SARS-CoV-2 (Wuhan strain), UniProt P0DTC2 319-541); test: SERS sandwich; BLI ([…]; BLI ([…], room temperature; […]
[2] = biological target: T1, RBD on Ag nanoparticles (RBD NP); test: BLI; BLI ([…]; BLI ([…], room temperature; […]

B1: Found-SH (ssDNA)
DNA: CACCGCTTTTGCCTTTTGGGGACGGATATAGGGAAACACGATAGAATCCGAACAGCACC
binding result [1]: binds

B2: RBD-1C (biotinylated) (ssDNA)
DNA: CAGCACCGACCTTGTGCTTTGGGAGTGCTGGTCCAAGGGCGTTAATGGACA
binding result [2]: binds

B3: RBD-1C-Cy3 (ssDNA)
DNA: CAGCACCGACCTTGTGCTTTGGGAGTGCTGGTCCAAGGGCGTTAATGGACA
binding result [1]: binds
